Key:
[1] = molecular target: FOLR1-mycHis (human) (UniProt P15328); test: SPR (Biacore T100), antibody captured on CM5 chip, FOLR1-mycHis as analyte, single-cycle kinetics, 1:1 binding model
[2] = molecular target: FOLR1-mycHis (human) (UniProt P15328); test: SPR as in Example 29, antibody captured, FOLR1-mycHis as analyte

FOLR1-mycHis (human), sequence (P15328 25-233): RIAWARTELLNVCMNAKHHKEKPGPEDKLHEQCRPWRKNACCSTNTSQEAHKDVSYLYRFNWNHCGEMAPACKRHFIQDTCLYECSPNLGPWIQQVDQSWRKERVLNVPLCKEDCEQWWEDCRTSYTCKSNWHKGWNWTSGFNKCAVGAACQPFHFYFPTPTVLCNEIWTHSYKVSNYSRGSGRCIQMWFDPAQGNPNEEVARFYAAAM

Kd [1] [nM]	affinity as percent of that of HuRA15-7CTAcc antibody [2] [%]	Substance
92		MOv18 antibody (ALEXIS BIO…)
	1.1	MORAb-003DF antibody
66		LK26 antibody (GeneTex)

Source: US20160060340A1
